# From publication PMC6231261, “Enhanced triacylglycerol production in the diatom Phaeodactylum tricornutum by inactivation of a Hotdog-fold thioesterase gene using TALEN-based targeted mutagenesis” (Biotechnology for Biofuels, 2018)
# Columns and labels:
# Test in all cases: DTNB spectrophotometric CoA release (A412)
# Type in all cases: biochemical, Phaeodactylum tricornutum
# [1] = substrate: CCCCCCCCCCCCCC(=O)SCCNC(=O)CCNC(=O)[C@H](O)C(C)(C)COP(=O)(O)OP(=O)(O)OC[C@H]1O[C@@H](n2cnc3c(N)ncnc32)[C@H](O)[C@@H]1OP(=O)(O)O; details: 10 mM HEPES pH 7.5, 50 mM KCl, 0.3 mM DTNB, room temperature in methods (37 °C in Fig. 1 legend)
# Description: (§1) DTNB spectrophotometric CoA release (A412) on ptTES1
# [2] = substrate: CC/C=C\C/C=C\C/C=C\C/C=C\C/C=C\CCCC(=O)SCCNC(=O)CCNC(=O)[C@H](O)C(C)(C)COP(=O)(O)OP(=O)(O)OC[C@H]1O[C@@H](n2cnc3c(N)ncnc32)[C@H](O)[C@@H]1OP(=O)(O)O; details: 10 mM HEPES pH 7.5, 50 mM KCl, 0.3 mM DTNB, room temperature in methods (37 °C in Fig. 1 legend)
# Description: as §1
# [3] = substrate: CC(C)(COP(=O)(O)OP(=O)(O)OC[C@H]1O[C@@H](n2cnc3c(N)ncnc32)[C@H](O)[C@@H]1OP(=O)(O)O)[C@@H](O)C(=O)NCCC(=O)NCCSC(=O)CC(=O)O; details: 10 mM HEPES pH 7.5, 50 mM KCl, 0.3 mM DTNB, room temperature in methods (37 °C in Fig. 1 legend)
# Description: as §1
# [4] = substrate: CCCCCCCC/C=C\CCCCCCCC(=O)SCCNC(=O)CCNC(=O)[C@H](O)C(C)(C)COP(=O)(O)OP(=O)(O)OC[C@H]1O[C@@H](n2cnc3c(N)ncnc32)[C@H](O)[C@@H]1OP(=O)(O)O; details: 10 mM HEPES pH 7.5, 50 mM KCl, 0.3 mM DTNB, room temperature in methods (37 °C in Fig. 1 legend), substrate inhibition above 60 μM
# Description: as §1
# [5] = substrate: CCCCCCCCCCCCCCCCCC(=O)SCCNC(=O)CCNC(=O)[C@H](O)C(C)(C)COP(=O)(O)OP(=O)(O)OC[C@H]1O[C@@H](n2cnc3c(N)ncnc32)[C@H](O)[C@@H]1OP(=O)(O)O; details: 10 mM HEPES pH 7.5, 50 mM KCl, 0.3 mM DTNB, room temperature in methods (37 °C in Fig. 1 legend)
# Description: as §1
# [6] = substrate: CCCCCCCCCCCCCCCC(=O)SCCNC(=O)CCNC(=O)[C@H](O)C(C)(C)COP(=O)(O)OP(=O)(O)OC[C@H]1O[C@@H](n2cnc3c(N)ncnc32)[C@H](O)[C@@H]1OP(=O)(O)O; details: 10 mM HEPES pH 7.5, 50 mM KCl, 0.3 mM DTNB, room temperature in methods (37 °C in Fig. 1 legend), substrate inhibition above 60 μM
# Description: as §1
# [7] = substrate: CCCCCCCCCC(=O)SCCNC(=O)CCNC(=O)[C@H](O)C(C)(C)COP(=O)(O)OP(=O)(O)OC[C@H]1O[C@@H](n2cnc3c(N)ncnc32)[C@H](O)[C@@H]1OP(=O)(O)O; details: 10 mM HEPES pH 7.5, 50 mM KCl, 0.3 mM DTNB, room temperature in methods (37 °C in Fig. 1 legend)
# Description: as §1
protein,measurement,setting,value
"ptTES1 (Phaeodactylum tricornutum CCAP 1055/1) (protein, codon-optimized synthetic gene in pET28a, His6-tagged, E. coli Rosetta (DE3), Ni-NTA purified, about 25 kDa on SDS-PAGE; tag removal not mentioned) MGLIHTPRTIVSIAKGLWKRRQGTVDWPGLGPDKPYVYNARLGLFDVDYLGHLNNAAYLSHAELARWELTAANGMLTSMLQSGTNFIVSGSCIRYRQEIRPVFRKFQVDTYVAGLDQRTIWMVQNFRYPGQNERIRAQMIVQGVAVQKTKGIIDPRSFFVDTVGMPSDLIESVNLPITSDDTVEDVLERYSFLEKALRRAATVDDELQKKEANKE",Km,[1],21.79 µM
same,Vmax,[1],0.0302 µmol/min/mg
same,kcat,[1],0.0131 s⁻¹
same,kcat/Km,[1],602 M⁻¹ s⁻¹
same,Km,[2],38.61 µM
same,Vmax,[2],0.0164 µmol/min/mg
same,kcat,[2],0.0071 s⁻¹
same,kcat/Km,[2],184 M⁻¹ s⁻¹
same,Km,[3],14.64 µM
same,Vmax,[3],0.00205 µmol/min/mg
same,kcat,[3],0.0009 s⁻¹
same,kcat/Km,[3],60.7 M⁻¹ s⁻¹
same,Km,[4],12.37 µM
same,Vmax,[4],0.0508 µmol/min/mg
same,kcat,[4],0.022 s⁻¹
same,kcat/Km,[4],1780 M⁻¹ s⁻¹
same,Km,[5],8.246 µM
same,Vmax,[5],0.0451 µmol/min/mg
same,kcat,[5],0.0196 s⁻¹
same,kcat/Km,[5],2370 M⁻¹ s⁻¹
same,Km,[6],14.76 µM
same,Vmax,[6],0.0453 µmol/min/mg
same,kcat,[6],0.0196 s⁻¹
same,kcat/Km,[6],1330 M⁻¹ s⁻¹
same,Km,[7],91.76 µM
same,Vmax,[7],0.0228 µmol/min/mg
same,kcat,[7],0.0099 s⁻¹
same,kcat/Km,[7],108 M⁻¹ s⁻¹
